The values below come from article doi:10.1101/2024.06.12.598358 (bioRxiv, 2024).

Where two headings read alike, the source gives them in different places. Side chains are listed from the residue outwards. Ends that are not written are not given here. maleimide = maleimide function on the C-terminal Lys

For assay [1], the target named is 7xHis-SUMO-MtbClpC1 (M. tuberculosis) (UniProt P9WPC9). Description: MST.
Assay [2] shares this target. As to the kind of experiment: MST. The source holds these as a separate data set.
For assay [3], the target named is Leu-LFVQLASK peptide conjugated to CSGSK^TAMRA. Description: fluorescence polarisation. On the technique in general: Polarisation of emitted light reports the rotation of a fluorescent probe.
In assay [4] the target is Phe-LFVQLASK peptide conjugated to CSGSK^TAMRA. Description: fluorescence polarisation.
The target of assay [5] is Trp-LFVQLASK peptide conjugated to CSGSK^TAMRA. As to the kind of experiment: fluorescence polarisation.
Assay [6] has as its target Tyr-LFVQLASK peptide conjugated to CSGSK^TAMRA. As to the kind of experiment: fluorescence polarisation.
For another assay, the target named is T1, E. coli ClpS (E. coli, UniProt P0A8Q6 1-106).
T1 sequence: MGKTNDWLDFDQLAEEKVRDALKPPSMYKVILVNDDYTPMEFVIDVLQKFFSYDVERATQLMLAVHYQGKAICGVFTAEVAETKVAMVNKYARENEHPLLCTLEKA
As to the kind of experiment: fluorescence polarisation.

For orientation: Kd means the equilibrium constant for the complex coming apart. A higher Kd goes with weaker binding.

Sequence of 7xHis-SUMO-MtbClpC1 (M. tuberculosis) (P9WPC9 whole entry): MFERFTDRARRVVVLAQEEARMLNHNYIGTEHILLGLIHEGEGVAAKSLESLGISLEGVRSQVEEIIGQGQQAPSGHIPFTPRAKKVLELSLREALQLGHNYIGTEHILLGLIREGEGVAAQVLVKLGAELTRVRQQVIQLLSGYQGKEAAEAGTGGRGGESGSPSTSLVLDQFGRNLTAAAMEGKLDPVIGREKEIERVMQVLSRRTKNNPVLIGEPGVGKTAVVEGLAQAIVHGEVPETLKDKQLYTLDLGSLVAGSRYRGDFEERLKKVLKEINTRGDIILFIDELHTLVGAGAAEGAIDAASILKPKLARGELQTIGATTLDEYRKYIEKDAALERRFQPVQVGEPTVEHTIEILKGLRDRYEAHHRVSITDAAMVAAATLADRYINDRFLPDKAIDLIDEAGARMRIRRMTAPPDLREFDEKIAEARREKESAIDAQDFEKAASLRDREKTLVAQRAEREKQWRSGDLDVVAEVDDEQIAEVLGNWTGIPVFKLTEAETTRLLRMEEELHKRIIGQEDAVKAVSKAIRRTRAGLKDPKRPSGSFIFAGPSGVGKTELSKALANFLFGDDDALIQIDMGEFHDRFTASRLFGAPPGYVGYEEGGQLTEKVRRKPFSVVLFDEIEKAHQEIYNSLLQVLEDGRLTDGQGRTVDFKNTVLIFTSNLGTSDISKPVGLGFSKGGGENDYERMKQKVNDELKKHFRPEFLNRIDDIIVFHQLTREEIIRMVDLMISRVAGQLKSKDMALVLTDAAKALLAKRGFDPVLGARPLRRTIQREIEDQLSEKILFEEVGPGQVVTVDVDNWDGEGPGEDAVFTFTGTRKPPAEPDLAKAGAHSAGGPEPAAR

In the case of M. smegmatis ClpS (natural protein), the Kd in assay [1] amounted to 100 µM; in assay [2], 3.5 µM; in assay [3], 42 µM; in assay [4], 6.5 µM; in assay [5], 11 µM; in assay [6], 8.8 µM.

B1: Trp-LFVQLASK peptide conjugated to CSGSK^TAMRA (peptide)
peptide: WLFVQLASK([maleimide-CSGSK(TAMRA)])
modifications: not fully specified
In the case of B1, in the assay with E. coli ClpS, the binding result is reported as “binds”.

B2: Leu-LFVQLASK peptide conjugated to CSGSK^TAMRA (peptide)
peptide: LLFVQLASK([maleimide-CSGSK(TAMRA)])
modifications: not fully specified
On to B2, for which the binding result with E. coli ClpS is listed as “binds”.

B3: Tyr-LFVQLASK peptide conjugated to CSGSK^TAMRA (peptide)
peptide: YLFVQLASK([maleimide-CSGSK(TAMRA)])
modifications: not fully specified
For the molecule B3, the binding result with E. coli ClpS is “binds”.

B4: Phe-LFVQLASK peptide conjugated to CSGSK^TAMRA (peptide)
peptide: FLFVQLASK([maleimide-CSGSK(TAMRA)])
modifications: not fully specified
For B4, in the assay with E. coli ClpS, the binding result is recorded as “binds”.
